Experiment [1] can be described thus: Binding of intelectin to beads having a diol group (SDS-PAGE, Examples 1 and 10). To be noted: 18 hours at 25 deg C; eluted with 15% glycerol; compared with polystyrene or hydroxy beads. The procedure:
Beads having a diol group on the surface and beads not having a diol group on the surface were prepared. Beads obtained by conjugating 3-amino-1-propanediol bound to the surface of polystyrene beads via an amino group (diol beads), and beads obtained by alkaline hydrolyzing the epoxy group of Sepharose beads with 1,4-bis(2,3-epoxypropyl)butane introduced (epoxy-activated Sepharose 6B (GE Healthcare Biosciences)) (diol Sepharose beads) were used as the beads having a diol group on the surface. Polystyrene beads and beads obtained by conjugating 3-amino-1-propanol to polystyrene beads (hydroxy beads) were used as the beads not having a diol group on the surface.
Each kind of beads were added to 500 microliters of a medium containing intelectin or a medium not containing intelectin, and were stirred for 18 hours at 25 deg C. Recombinant human intelectin-1 was used as intelectin. Subsequently, the beads were collected by centrifugation and washed once with buffer, and the samples was eluted with buffer containing 15% glycerol. Samples were separated by SDS polyacrylamide gel electrophoresis (SDS-PAGE), and proteins were stained using Coomassie Brilliant Blue.
Beads having a diol group on the surface and beads not having a diol group on the surface were prepared. Diol beads, diol Sepharose brads, and hydroxy beads, that were used in Example 1, were used as the beads.
First, beads were added to 5 mL of a medium containing recombinant mouse intelectin-1 or 1 mL of a medium containing C31, 48S mutant of human intelectin-1, and the samples were stirred for 18 hours at 25 deg C.
Subsequently, the beads were collected by centrifugation and washed once with buffer, and the samples were eluted with buffer containing 15% glycerol. The samples were then separated by SDS-polyacrylamide gel electrophoresis (SDS-PAGE), and proteins were stained with Coomassie Brilliant Blue.

Experiment [2] in a line: Adsorption of intelectin in human serum to diol modified silica gel column (Example 14). The experiment is classed as binding. The procedure: 40 microliters of 50% fresh human serum diluted with 0.1% Tween 20-150 mM NaCl—50 mM phosphate buffer (pH 7.3) added with or not added with 10 mM EDTA was added to a gel filtration chromatography column (TSKgel G3000 SWXL Tosoh Corporation) utilizing diol-modified silica gel as the carrier, and gel filtration was performed using 0.1% Tween 20—150 mM NaCl—50 mM phosphate buffer (pH 7.3) as solvent. Subsequently, the intelectin concentration in the elution fraction was measured using ELISA.

From patent publication US20180057553A1, “CONJUGATE AND USE THEREOF” (The University of Tokyo, priority 2015, published 2018) come the findings set out here.

Changes are numbered by the printed parent chain. In names and notes the source's numbering stands.

B1: intelectin: a kind of lectin; amino acid sequence of human intelectin-1 is SEQ ID NO: 1; wild type forms a trimer (protein, listed as Homo sapiens)
chain: MNQLSFLLFLIATTRGWSTDEANTYFKEWTCSSSPSLPRSCKEIKDECPSAFDGLYFLRTENGVIYQTFCDMTSGGGGWTLVASVHENDMRGKCTVGDRWSSQQGSKADYPEGDGNWANYNTFGSAEAATSDDYKNPGYYDIQAKDLGIWHVPNKSPMQHWRNSSLLRYRTDTGFLQTLGHNLFGIYQKYPVKYGEGKCWTDNGPVIPVVYDFGDAQKTASYYSPYGQREFTAGFVQFRVFNNERAANALCAGMRVTGCNTEHHCIGGGGYFPEASPQQCGDFSGFDWSGYGTHVGYSSSREITEAAVLLFYR
modifications: human intelectin-1
notes: a kind of lectin; wild type forms a trimer
For B1, the “binding to beads having a diol group (SDS-PAGE)” value (“binding … (SDS-PAGE)” for short) in experiment [1] was “selectively bind to diol beads and diol Sepharose beads”. Further, the entries for the “binding of serum intelectin to the column” value in experiment [2] (human serum added with 10 mM EDTA) and in experiment [2] (human serum not added with EDTA) were “did not bind to the column” and “adsorbed to the column”, respectively.

B2: C31, 48S mutant of human intelectin-1: cysteine residues at position 31 and 48 substituted with serine; produced as a monomer; SEQ ID NO: 9 (protein, listed as Homo sapiens)
chain: B1 chain with C31S, C48S
modifications: human intelectin-1 C31S, C48S variant
Take B2: the “binding … (SDS-PAGE)” value in experiment [1] is “specifically bind to diol beads and diol Sepharose beads”.

B3: mouse intelectin-1: produced as a monomer; 51 amino acid residues different from human intelectin-1; SEQ ID NO: 7 (protein, listed as Mus musculus)
chain: MTQLGFLLFIMVATRGCSAAEENLDTNRWGNSFFSSLPRSCKEIKQEHTKAQDGLYFLRTKNGVIYQTFCDMTTAGGGWTLVASVHENNMRGKCTVGDRWSSQQGNRADYPEGDGNWANYNTFGSAEAATSDDYKNPGYFDIQAENLGIWHVPNKSPLHNWRKSSLLRYRTFTGFLQHLGHNLFGLYKKYPVKYGEGKCWTDNGPALPVVYDFGDARKTASYYSPSGQREFTAGYVQFRVFNNERAASALCAGVRVTGCNTEHHCIGGGGFFPEGNPVQCGDFASFDWDGYGTHNGYSSSRKITEAAVLLFYR
modifications: mouse intelectin-1
For the molecule B3, in experiment [1], the “binding … (SDS-PAGE)” value was “specifically bind to diol beads and diol Sepharose beads”.
